The results in this text go back to US8691944 (RESEARCH FOUNDATION FOR THE STATE UNIVERSITY OF NEW YORK, dated 2014).

One may read the Kd as a measure of binding affinity in units of concentration. Higher therefore signals weaker binding.

Sequences and labels used below:
B1: EGF (ligand, UniProt P01133 971-1023, looked up)
chain: NSDSECPLSHDGYCLHDGVCMYIEALDKYACNCVVGYIGERCQYRDLKWWELR
B4: platelet-derived growth factor-BB (PDGF-BB) (ligand, UniProt P01127 82-190, looked up)
chain: SLGSLTIAEPAMIAECKTRTEVFEISRRLIDRTNANFLVWPPCVEVQRCSGCCNNRNVQCRPTQVQLRPVQVRKIEIVRKKPIFKKATVTLEDHLACKCETVAAARPVT
notes: Two B chains by its name BB

The target in assay [1] is B4. Put plainly: peptide binding assay.
For assay [2], the target named is transforming growth factor-β1 (TGF-β1) (UniProt P01137 279-390). Put plainly: equilibrium binding.
The assay “EGF” deals with B1. Put plainly: binding assay, method not restated.
Another assay has as its target TGF-α (UniProt P01135 40-89). Put plainly: binding assay, method not restated.
The target of the next assay is FGF-1 (UniProt P05230 16-155, limits assumed). Put plainly: binding assay, method not restated.
Assay [3] has as its target T1, intact fibronectin (UniProt P02751-8 32-2296, limits assumed).
T1 construct: also called FN; intact FN
Put plainly: equilibrium binding to FN adsorbed to a surface or coupled to agarose beads.

Assay [4] concerns the target T2, FNIII12-V15 (HV), composite heparinII-binding and variably-spliced IIICS domains of fibronectin (human, UniProt P02751 1812-2288).
T2 construct: domain: FNIII12-V15; Recombinant domain made in E. coli; Some constructs carried GST at the C-terminus
Put plainly: plasmon resonance.

The target in assay [5] is T3, FNIII1-7 (UniProt P02751 610-1265, limits assumed).
T3 construct: domain: FNIII1-7
Put plainly: equilibrium and kinetic binding.

Assay [6] has as its target T4, 70 kDa amino terminus of FN (FN70) (UniProt P02751 32-608, limits assumed).
T4 construct: domain: 70 kDa amino terminus of FN (FN70); also called amino-terminal end of FN
Put plainly: equilibrium and kinetic binding.

Assay [7] deals with T5, FNIII8-11 (C), central cell-binding domain of fibronectin containing RGD (human, UniProt P02751 1357-1721).
T5 construct: domain: FNIII8-11; Recombinant domain
Put plainly: binding assay, method not restated.

Another assay deals with T6, FNIII1 (human, UniProt P02751 610-702, limits assumed).
T6 construct: domain: FNIII1; Recombinant domain; also called first type III repeat of FN
Put plainly: binding assay, method not restated.

For assay [8], the target named is T7, FNIII12-14 (human, UniProt P02751 1812-2082).
T7 construct: domain: FNIII12-14; Recombinant domain
Put plainly: binding assay, method not restated.

The target in assay [9] is T8, FNIII3-6 (human, UniProt P02751 810-1172, limits assumed).
T8 construct: domain: FNIII3-6; Recombinant domain
Put plainly: binding assay, method not restated.

The target in assay [10] is T9, FNIII12-15 (H), heparinII-binding domain of fibronectin (human, UniProt P02751-10 1631-1987).
T9 construct: domain: FNIII12-15; Recombinant domain; also called HepII domain
Put plainly: binding assay, method not restated.

Assay [11] addresses B4. Put plainly: equilibrium binding.
Assay [12] concerns the target T4, 70 kDa amino terminus of FN (FN70). Put plainly: binding assay, method not restated.
Another assay addresses T10, FNIII1-11 (human, UniProt P02751-1 610-1630).
T10 construct: domain: FNIII1-11; Recombinant domain
Put plainly: binding assay, method not restated.

In assay [13] the target is T4, 70 kDa amino terminus of FN (FN70). Put plainly: equilibrium binding, confirmed by surface plasmon resonance. For orientation: Surface plasmon resonance follows binding to a sensor surface in real time, without labels.
For assay [14], the target named is T11, FNIII1-2 (human, UniProt P02751 610-809, limits assumed).
T11 construct: domain: FNIII1-2; Recombinant domain
Put plainly: surface plasmon resonance.

Assay [15] concerns the target T7, FNIII12-14. Put plainly: binding assay, method not restated (plasmon resonance in the sentence before).
Assay [16] concerns the target T3, FNIII1-7. Put plainly: plasmon surface resonance, kinetic binding.
The target of assay [17] is T2, FNIII12-V15 (HV), composite …. Put plainly: plasmon surface resonance, kinetic binding.
Assay [18] has as its target T1, intact fibronectin. Put plainly: radiolabeled GF binding to intact FN, non linear regression.
Assay [19] deals with T11, FNIII1-2. Put plainly: equilibrium binding.
Assay [20] has as its target T3, FNIII1-7. Put plainly: equilibrium binding.
The target of assay [21] is T7, FNIII12-14. Put plainly: equilibrium binding.
The target in assay [22] is T2, FNIII12-V15 (HV), composite …. Put plainly: equilibrium binding.
Assay [23] deals with T8, FNIII3-6. Put plainly: equilibrium binding.
The target of another assay is T12, FNIII12-13 (UniProt P02751 1812-1992).
T12 construct: domain: FNIII12-13
Put plainly: equilibrium binding.

In assay [24] the target is T9, FNIII12-15 (H), heparinII-binding …. Put plainly: equilibrium binding.
Assay [25] has as its target B4. Put plainly: binding assay, method not restated.

T7 sequence (P02751 other isoform, or with tags, fused parts or gaps limits assumed): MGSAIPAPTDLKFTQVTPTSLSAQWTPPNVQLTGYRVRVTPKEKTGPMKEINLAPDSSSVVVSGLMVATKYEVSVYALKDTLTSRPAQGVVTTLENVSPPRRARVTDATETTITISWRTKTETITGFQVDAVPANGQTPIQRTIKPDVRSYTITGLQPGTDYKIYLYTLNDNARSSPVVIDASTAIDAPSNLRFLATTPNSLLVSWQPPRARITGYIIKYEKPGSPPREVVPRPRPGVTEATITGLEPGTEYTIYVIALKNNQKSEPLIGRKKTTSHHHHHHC
T5 sequence (P02751 other isoform, or with tags, fused parts or gaps limits assumed): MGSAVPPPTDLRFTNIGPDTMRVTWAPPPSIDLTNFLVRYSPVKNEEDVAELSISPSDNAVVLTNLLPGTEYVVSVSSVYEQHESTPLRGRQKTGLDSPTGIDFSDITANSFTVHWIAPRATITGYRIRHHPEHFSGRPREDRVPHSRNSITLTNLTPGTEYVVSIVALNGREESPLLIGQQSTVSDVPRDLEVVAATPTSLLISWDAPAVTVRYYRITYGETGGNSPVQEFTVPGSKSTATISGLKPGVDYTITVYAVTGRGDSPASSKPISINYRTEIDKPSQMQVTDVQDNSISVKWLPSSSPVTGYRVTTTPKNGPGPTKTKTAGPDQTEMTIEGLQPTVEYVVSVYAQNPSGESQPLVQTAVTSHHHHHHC
T3 sequence (P02751 610-1265 limits assumed): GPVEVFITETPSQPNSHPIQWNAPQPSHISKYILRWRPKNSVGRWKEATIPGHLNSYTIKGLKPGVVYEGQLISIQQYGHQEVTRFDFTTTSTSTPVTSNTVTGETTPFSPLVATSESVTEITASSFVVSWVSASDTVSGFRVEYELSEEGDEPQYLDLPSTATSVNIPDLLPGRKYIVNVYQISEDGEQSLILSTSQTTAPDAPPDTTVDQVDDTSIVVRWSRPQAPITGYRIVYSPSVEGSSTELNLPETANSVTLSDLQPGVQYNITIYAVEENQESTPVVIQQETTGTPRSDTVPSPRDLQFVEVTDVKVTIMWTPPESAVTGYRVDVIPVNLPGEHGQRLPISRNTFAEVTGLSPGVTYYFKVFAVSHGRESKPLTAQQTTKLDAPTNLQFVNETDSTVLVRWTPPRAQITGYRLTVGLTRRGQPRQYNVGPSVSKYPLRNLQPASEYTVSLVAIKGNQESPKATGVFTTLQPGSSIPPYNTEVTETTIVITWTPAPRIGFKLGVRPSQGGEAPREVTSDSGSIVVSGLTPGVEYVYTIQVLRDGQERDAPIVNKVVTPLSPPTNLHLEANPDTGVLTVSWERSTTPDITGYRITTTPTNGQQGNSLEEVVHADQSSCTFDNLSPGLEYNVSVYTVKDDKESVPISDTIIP
Sequence of TGF-α (P01135 40-89 limits assumed): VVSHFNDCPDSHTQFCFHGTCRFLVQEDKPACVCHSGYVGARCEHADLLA
Sequence of transforming growth factor-β1 (TGF-β1) (P01137 279-390 limits assumed): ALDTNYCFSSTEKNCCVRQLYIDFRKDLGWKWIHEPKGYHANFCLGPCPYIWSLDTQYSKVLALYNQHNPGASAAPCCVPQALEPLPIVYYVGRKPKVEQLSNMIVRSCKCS
T2 sequence (P02751 other isoform, or with tags, fused parts or gaps limits assumed): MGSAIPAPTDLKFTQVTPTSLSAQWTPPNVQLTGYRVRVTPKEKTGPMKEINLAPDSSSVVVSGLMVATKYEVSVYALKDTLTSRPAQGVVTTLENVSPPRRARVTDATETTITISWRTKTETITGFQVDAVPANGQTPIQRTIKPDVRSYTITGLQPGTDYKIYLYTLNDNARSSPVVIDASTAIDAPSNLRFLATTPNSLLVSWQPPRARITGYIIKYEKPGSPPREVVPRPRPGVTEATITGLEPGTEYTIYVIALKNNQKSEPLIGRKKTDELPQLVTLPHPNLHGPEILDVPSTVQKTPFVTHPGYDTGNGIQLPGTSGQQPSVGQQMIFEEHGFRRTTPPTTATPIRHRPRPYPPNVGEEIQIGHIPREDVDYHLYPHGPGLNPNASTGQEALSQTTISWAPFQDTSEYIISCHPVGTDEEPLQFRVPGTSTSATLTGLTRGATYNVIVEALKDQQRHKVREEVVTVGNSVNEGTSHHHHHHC
T4 sequence (P02751 32-608 limits assumed): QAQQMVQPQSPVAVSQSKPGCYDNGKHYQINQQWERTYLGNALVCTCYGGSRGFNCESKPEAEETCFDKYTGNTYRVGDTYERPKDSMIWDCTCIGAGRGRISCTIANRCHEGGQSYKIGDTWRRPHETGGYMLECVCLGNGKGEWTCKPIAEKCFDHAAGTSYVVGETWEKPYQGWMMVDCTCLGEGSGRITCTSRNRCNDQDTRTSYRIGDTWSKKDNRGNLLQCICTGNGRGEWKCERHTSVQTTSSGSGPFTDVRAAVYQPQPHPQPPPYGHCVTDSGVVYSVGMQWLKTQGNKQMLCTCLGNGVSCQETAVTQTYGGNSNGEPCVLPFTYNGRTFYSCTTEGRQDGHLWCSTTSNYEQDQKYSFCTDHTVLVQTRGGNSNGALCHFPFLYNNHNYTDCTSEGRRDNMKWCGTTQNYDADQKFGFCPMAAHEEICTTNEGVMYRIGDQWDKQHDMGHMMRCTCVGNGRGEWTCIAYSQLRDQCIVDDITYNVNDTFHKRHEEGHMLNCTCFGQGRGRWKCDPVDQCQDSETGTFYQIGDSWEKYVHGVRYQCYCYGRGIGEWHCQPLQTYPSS
Sequence of FGF-1 (P05230 16-155 limits assumed): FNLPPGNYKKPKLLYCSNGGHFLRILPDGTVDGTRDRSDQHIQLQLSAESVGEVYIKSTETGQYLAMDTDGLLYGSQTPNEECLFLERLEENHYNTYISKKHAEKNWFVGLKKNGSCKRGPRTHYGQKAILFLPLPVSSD
T1 sequence (P02751 other isoform, or with tags, fused parts or gaps limits assumed): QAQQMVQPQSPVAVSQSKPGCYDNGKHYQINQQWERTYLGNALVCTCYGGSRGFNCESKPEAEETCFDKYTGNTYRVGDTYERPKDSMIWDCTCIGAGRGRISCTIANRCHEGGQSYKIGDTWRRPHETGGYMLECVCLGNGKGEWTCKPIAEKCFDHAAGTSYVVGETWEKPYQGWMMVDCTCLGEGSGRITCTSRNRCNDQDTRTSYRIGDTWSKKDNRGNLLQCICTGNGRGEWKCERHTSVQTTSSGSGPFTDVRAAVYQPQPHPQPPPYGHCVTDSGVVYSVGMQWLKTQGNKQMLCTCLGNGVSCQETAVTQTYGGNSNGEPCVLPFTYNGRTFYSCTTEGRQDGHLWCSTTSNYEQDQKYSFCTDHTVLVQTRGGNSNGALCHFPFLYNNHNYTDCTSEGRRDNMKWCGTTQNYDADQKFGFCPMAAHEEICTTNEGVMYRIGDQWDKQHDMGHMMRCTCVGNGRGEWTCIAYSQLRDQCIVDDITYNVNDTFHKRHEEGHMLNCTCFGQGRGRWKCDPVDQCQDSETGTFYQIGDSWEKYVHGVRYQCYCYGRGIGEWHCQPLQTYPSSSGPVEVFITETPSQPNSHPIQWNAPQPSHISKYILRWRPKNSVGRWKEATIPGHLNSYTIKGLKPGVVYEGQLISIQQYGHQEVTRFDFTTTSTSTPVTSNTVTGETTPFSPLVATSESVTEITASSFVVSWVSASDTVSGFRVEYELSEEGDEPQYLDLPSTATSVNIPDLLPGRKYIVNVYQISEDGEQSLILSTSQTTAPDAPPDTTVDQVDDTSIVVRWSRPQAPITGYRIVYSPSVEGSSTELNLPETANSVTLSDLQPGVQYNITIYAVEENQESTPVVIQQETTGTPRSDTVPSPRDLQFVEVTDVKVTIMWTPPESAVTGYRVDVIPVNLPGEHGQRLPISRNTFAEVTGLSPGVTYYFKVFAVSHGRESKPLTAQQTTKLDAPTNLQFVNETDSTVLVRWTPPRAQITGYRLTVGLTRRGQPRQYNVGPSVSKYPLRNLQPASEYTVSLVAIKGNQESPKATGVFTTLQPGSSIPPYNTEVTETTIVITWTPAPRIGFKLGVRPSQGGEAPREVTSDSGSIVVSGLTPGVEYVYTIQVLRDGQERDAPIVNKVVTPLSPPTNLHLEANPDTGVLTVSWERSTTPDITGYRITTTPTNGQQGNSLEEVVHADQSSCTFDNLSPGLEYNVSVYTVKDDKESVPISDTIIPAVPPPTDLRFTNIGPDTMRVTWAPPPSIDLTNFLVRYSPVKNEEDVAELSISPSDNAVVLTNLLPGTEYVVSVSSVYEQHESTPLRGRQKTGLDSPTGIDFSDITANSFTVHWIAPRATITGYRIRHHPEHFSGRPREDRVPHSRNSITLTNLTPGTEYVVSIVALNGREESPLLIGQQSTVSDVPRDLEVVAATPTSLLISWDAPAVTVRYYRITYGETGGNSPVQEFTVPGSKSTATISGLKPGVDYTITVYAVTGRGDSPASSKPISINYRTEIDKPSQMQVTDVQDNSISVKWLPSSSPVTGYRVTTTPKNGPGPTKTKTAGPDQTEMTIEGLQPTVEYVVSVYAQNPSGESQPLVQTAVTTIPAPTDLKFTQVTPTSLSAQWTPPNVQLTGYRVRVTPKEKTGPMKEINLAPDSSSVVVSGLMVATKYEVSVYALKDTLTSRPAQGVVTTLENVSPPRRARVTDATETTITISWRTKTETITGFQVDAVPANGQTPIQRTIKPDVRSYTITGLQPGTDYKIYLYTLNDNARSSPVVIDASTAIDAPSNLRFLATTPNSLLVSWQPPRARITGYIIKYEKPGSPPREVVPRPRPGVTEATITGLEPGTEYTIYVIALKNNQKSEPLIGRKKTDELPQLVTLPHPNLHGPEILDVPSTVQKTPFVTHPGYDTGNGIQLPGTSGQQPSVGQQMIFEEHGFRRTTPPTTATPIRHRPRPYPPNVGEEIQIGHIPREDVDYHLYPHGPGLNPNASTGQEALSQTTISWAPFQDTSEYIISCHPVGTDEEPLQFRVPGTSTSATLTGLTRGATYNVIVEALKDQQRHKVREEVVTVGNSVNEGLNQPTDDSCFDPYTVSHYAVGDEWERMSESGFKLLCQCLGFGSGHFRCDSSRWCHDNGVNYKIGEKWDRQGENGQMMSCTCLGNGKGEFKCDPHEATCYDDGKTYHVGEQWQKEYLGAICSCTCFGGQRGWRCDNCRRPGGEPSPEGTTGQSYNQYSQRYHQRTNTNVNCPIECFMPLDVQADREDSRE

As to KNSVGRWKEATIPGHLNSYT [FN648-667 (KNSVGRWKEATIPGHLNSYT)], in [1], the binding result was “no binding”.
For WNAPQPSHISKYILRWRPK [FN630-648 (WNAPQPSHISKYILRWRPK)], binding in [1] was characterised by a dissociation constant (Kd) of 340 nM.
Consider YILRWRPKNSVGRW [FN641-654 (YILRWRPKNSVGRW)], for which the binding result in [1] was “no binding”.
With QPSHISKYILRWRPK [FN634-648 (QPSHISKYILRWRPK)], the dissociation constant Kd is 450 nM in [1] and 440 nM in assay [2].
The molecule NGQTPIQRTIKPDVRSYTITGLQPGT (Synthetic peptide) [peptide 3 (NGQTPIQRTIKPDVRSYTITGLQPGT)] displayed a Kd in assay [2] of 140 nM. Besides, the binding result with EGF, in the assay with TGF-α and in the assay with FGF-1 was “no binding” in each case.
For B1, the binding result (with intact fibronectin [3]; in assay [4]; in the assay with FNIII1-7 [5]; in assay [6]; in assay [7]; in the assay with FNIII1) was “no binding” in each case. Also, the binding result (with FNIII12-14 [8]; in the assay with FNIII3-6 [9]; in assay [10]) was “no binding” in each case.

B2: peptide 1 (QPSHISKYILRWRPKNSVGRWKEAT) (peptide)
peptide: QPSHISKYILRWRPKNSVGRWKEAT
notes: Synthetic peptide; also called FN634-658
Take B2: the dissociation constant (Kd) was 250 nM in assay [11] and 130 nM in assay [2]. Moreover, the binding result in the assay with EGF, with TGF-α and with FGF-1 was “no binding” each time.

B3: vascular endothelial growth factor A (VEGF-A) (ligand, UniProt P15692-4 27-191, looked up)
chain: APMAEGGGQNHHEVVKFMDVYQRSYCHPIETLVDIFQEYPDEIEYIFKPSCVPLMRCGGCCNDEGLECVPTEESNITMQIMRIKPHQGQHIGEMSFLQHNKCECRPKKDRARQENPCGPCSERRKHLFVQDPQTCKCSCKNTDSRCKARQLELNERTCRCDKPRR
Turning to B3, in assay [4], binding was put at a Kd of 0.6 nM. In addition, the binding result (in assay [7]; in assay [12]; with FNIII1-11) was “no binding” throughout.
As to B4, the binding result (in assay [13]; with FNIII3-6 [23]; in assay [7]) was “no binding” throughout. Also, the dissociation constant (Kd) amounted to 9.1 nM in the assay with FNIII1-2 [14]; 55 nM with FNIII12-14 [15]; 100 nM in the assay with FNIII1-7 [16]; 17 nM in [17]; 49 nM in the assay with intact fibronectin [18]; 37 nM in the assay with FNIII1-2 [19]. The dissociation constant Kd amounted to 75 nM with FNIII1-7 [20]; 35 nM in the assay with FNIII12-14 [21]; 21 nM in [22]; 75 nM with FNIII12-13; 6.8 nM in assay [24].
Consider QPSVGQQMIFEEHGFRRTTPPTTAT (Synthetic peptide) [peptide 4 (QPSVGQQMIFEEHGFRRTTPPTTAT)], for which the dissociation constant (Kd) in assay [2] was 100 nM. For the same molecule, the binding result with EGF, in the assay with TGF-α and with FGF-1 was “no binding” each time.
Turning to QPSHISKY [FN634-641 (QPSHISKY)], the binding result in [1] is “no binding”.
On to ILRWRPKNSVGRWK, for which the Kd in assay [2] is 400 nM.
Turning to QLISIQQYGHQEVTRFDFTTTSTST (Synthetic peptide) [peptide 2 (QLISIQQYGHQEVTRFDFTTTSTST)], the Kd amounted to 270 nM in assay [2] and 110 nM in assay [25]. Besides, the binding result with EGF, in the assay with TGF-α and in the assay with FGF-1 was “no binding” each time.
